Biological target: T1, Secreted Protease of C1 Esterase Inhibitor (StcE), recombinant N-terminal His-tagged (Escherichia coli O157:H7, UniProt O82882 36-898)
T1 construct: also called mucinase
T1 sequence: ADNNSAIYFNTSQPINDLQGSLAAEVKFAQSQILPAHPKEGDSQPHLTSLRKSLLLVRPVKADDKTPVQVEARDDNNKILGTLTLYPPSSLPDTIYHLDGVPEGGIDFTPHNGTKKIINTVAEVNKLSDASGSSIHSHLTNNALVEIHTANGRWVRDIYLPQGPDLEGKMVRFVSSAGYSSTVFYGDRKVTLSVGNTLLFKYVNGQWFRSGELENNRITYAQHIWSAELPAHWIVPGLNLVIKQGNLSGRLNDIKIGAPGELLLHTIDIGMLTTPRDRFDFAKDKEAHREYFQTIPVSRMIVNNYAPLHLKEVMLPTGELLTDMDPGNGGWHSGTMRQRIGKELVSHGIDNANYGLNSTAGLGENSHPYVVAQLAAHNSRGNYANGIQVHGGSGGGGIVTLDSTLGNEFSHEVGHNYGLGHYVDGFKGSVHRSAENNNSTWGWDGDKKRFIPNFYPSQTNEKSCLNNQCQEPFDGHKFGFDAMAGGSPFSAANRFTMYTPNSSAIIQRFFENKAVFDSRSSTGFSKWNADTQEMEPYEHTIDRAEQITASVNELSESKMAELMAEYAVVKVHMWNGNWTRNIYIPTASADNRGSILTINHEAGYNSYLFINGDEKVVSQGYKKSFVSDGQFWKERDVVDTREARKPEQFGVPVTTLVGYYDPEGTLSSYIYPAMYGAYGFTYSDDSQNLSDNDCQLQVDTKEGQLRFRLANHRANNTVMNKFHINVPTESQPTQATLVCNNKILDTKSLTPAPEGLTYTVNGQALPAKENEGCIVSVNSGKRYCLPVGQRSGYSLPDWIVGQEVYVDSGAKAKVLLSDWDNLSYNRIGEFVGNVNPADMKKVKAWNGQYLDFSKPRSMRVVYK
Assay: pull-down with StcE conjugated to POROS AL beads, EDTA present, silver stain

B1: C1 esterase inhibitor, human plasma-derived (other)
chain: NPNATSSSSQDPESLQDRGEGKVATTVISKMLFVEPILEVSSLPTTNSTTNSATKITANTTDEPTTQPTTEPTTQPTIQPTQPTTQLPTDSPTQPTTGSFCPGPVTLCSDLESHSTEAVLGDALVDFSLKLYHAFSAMKKVETNMAFSPFSIASLLTQVLLGAGENTKTNLESILSYPKDFTCVHQALKGFTTKGVTSVSQIFHSPDLAIRDTFVNASRTLYSSSPRVLSNNSDANLELINTWVAKNTNNKISRLLDSLPSDTRLVLLNAIYLSAKWKTTFDPKKTRMEPFHFKNSVIKVPMMNSKKYPVAHFIDQTLKAKVGQLQLSHNLSLVILVPQNLKHRLEDMEQALSPSVFKAIMEKLEMSKFQPTLLTLPRIKVTTSQDMLSIMEKLEFFDFSYDLNLCGLTEDPDLQVSAMQHQTVLELTETGVEAAAASAISVARTLLVFEVQQPFLFVLWDQQHKFPVFMGRVYDPRA
notes: Printed as C11NH throughout (OCR of C1INH); Native glycosylated protein; also called C11NH; C1-INH
Question: Does B1 bind?
Answer: Result: binds
